According to article PMC5498468, “Exposure to the Epstein–Barr Viral Antigen Latent Membrane Protein 1 Induces Myelin-Reactive Antibodies In Vivo” (Frontiers in Immunology, 2017):
No end group written: not given here.

Target: T1, Bovine myelin basic protein (MBP) (bovine, UniProt P02687 1-169)
T1 construct: Myelin basic protein, bovine
Experiment: ELISA + other: WB (methods) or immunoprecipitation (results); synthetic peptides with C-terminal Lys-biotin tested for binding of MBP and LMP1; one grade a pair for the two assays
Conditions: both partners purified

T1 sequence (P02687 whole entry): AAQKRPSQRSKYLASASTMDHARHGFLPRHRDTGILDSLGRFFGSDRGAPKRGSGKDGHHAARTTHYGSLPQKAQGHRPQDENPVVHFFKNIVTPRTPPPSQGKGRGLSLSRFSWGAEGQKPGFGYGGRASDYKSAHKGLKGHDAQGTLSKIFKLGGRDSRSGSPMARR

B1: Synthesized biotinylated peptide P3, TYGGTFTDYLYNWVK (Bio) (peptide)
peptide: TYGGTFTDYLYNWVK
modifications: also: C-terminal Lys-biotin
notes: source: synthetic peptide (Shanghai Ruifu Chemical Co., Ltd.)
B1: binds.
